Laboratory results published in the supplement of paper PMC9732359.
± gives the uncertainty stated by the source.

Assay: protein stability index of a GFP-peptide fusion (yeast GPS) (PSI 1-4); higher = more stable; sorted into four equal gates, so the index is relative within each strain
Details: san1∆
Procedure, shortened: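 Plasmids in a pooled yeast library fused tiled 17-residue yeast protein peptides downstream of GFP and also expressed Cherry. Mid-log cultures grown without leucine were sorted into four equal gates by GFP/Cherry fluorescence ratio. Each gate's plasmids were PCR-amplified and Illumina-sequenced, and reads were matched to strains by barcodes. The protein stability index is derived by multiplying each gate's read frequency by its gate number and summing the results.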

Sequence | protein stability index
TGKITKMFQDIRLSKIL [CDC53] | 2.66 ± 0.071

Same assay, conditions: ubr1∆

Sequence | protein stability index
SPQKFETNLQTFLPPLL [ECM29] | 2.92 ± 0.049
SPSERIEPLEINIQSFK [BRR2] | 1.97 ± 0.032
SPTENGVFDPASYAKYL [RPL22A] | 2.88 ± 0.043
SPTPIQRITIPNVCNMK [PRP28] | 2.09 ± 0.057
SQAFDIVAALPISEKGL [RPP1] | 2.66 ± 0.15
SQEQGMGMDLYKTSKAA [FAS1] | 3.3 ± 0.057
SQFINDHILFTKTFIFI [SRB8] | 1.41 ± 0.033
SQFLKRVHANLQCISQI [SNF11] | 1.2 ± 0.057
SQHKKILEELDFVRNEL [SMC3] | 3.01 ± 0.057
SQRAQVVTMSVKSVNDP [RPC37] | 1.97 ± 0.1
SQSSAAAGASVDDKRRN [RPN6] | 3.25 ± 0.087
SQVKDSVTETESISQTP [SRP68] | 2.93 ± 0.084
SQYFKFKNDFNSFYYTS [RPN9] | 2.58 ± 0.056
SRCHLVTKDTKKYSSKN [SRP68] | 3.12 ± 0.072
SRGAVSGQKAGLIAARR [RPL2A] | 3.25 ± 0.097
SRHFASYANLPGTITHG [FAS1] | 2.71 ± 0.039
SRILYKAIRGMVSHKTA [RPL16B] | 1.25 ± 0.063
SRIRVKIEGCISQVSSI [RPB7] | 1.76 ± 0.074
SRNGDFPRTRFEAQIDS [RPN10] | 3.23 ± 0.086
SRPATTTRNGFMEAQGA [FAS2] | 2.21 ± 0.039
SRSNFQGKHTKFENDEL [LRP1] | 3.22 ± 0.064
SRTAADILLRLCVLWDD [YCG1] | 3 ± 0.24
SSAKRSKNTAVSKVQKR [SRP72] | 2.32 ± 0.069
SSEQFNVWDWNNWTSAT [GAL11] | 3.1 ± 0.083
SSFKKNLLKFITSNHKS [RPN3] | 1.83 ± 0.092
SSFRPCPLSQQFCGIKE [BRR2] | 2.31 ± 0.037

Sequence | protein stability index
SSKTRNVLNRIQELEDQ [ITC1] | 1.18 ± 0.058
SSLFLDGLEKAAFNGVT [FAS2] | 2.88 ± 0.063
SSLFQEKLLETNVSKQN [ECM29] | 2.52 ± 0.071
SSLIKAGLDKGISINNM [RPO31] | 2.95 ± 0.058
SSLSFGPENALNVYHYF [YJL039C/NUP192] | 2.67 ± 0.029
SSLVRSCGEEEFFSTNW [REC8] | 3.18 ± 0.2
SSNQSAPVETKKKRFEI [HRT1] | 3.27 ± 0.07
SSPTLATGFGAHMANPL [PRE4] | 2.65 ± 0.097
SSQFVRLASEPGIISIT [YMR129W/POM152] | 1.78 ± 0.04
SSQPLEPLSDTEEPDLA [DSN1] | 2.36 ± 0.07
SSTDIPSYTHVLISKLS [RRI1] | 2.35 ± 0.037
SSVTSDSMKYTISSLFV [RPC82] | 2.16 ± 0.042
STANPNIKLLNNRMGSY [POP1] | 3.04 ± 0.052
STIEKDMKEYDSDKGSK [SMC2] | 3.44 ± 0.075
STKIIMLLLNDSVENSS [SRB8] | 2.74 ± 0.088
STLMPGGVDVGPSVESY [SNF5] | 2.68 ± 0.087
STLSNWSSEFAKWAPTL [SNF2] | 2.26 ± 0.047
STMTEPVKQSFIRKYIN [GAL11] | 2.47 ± 0.053
STNSNSKPSTASPSAHT [RPN4] | 2.82 ± 0.042
STRLKKACKTADKLVNV [SRP68] | 3.18 ± 0.052
STSYHLNSTLESLYDLI [MED6] | 2.51 ± 0.12
SVARVEDHDVHSNESSN [IRR1] | 2.81 ± 0.058
SVFGFRTQFGGGKSVGF [RPS24A] | 2.77 ± 0.088
SVIPEVDREAMLKPNII [YCG1] | 3.05 ± 0.12
SVRLQRFYQLGVDLKLK [CSN12] | 3.06 ± 0.12
SVRSLQKRIENGGNSVI [SRP68] | 1.85 ± 0.1

Sequence | protein stability index
SVTVSQGNYVTEDIREG [YMR129W/POM152] | 2.85 ± 0.05
SVYGLDDISRQVARTNL [ROX3] | 2.94 ± 0.046
SWNLTGTILSSAGDDGK [YGL100W/SEH1] | 2.98 ± 0.084
SWYLNTFDGIRMSSEEV [GRR1] | 2.27 ± 0.043
SYDFLPLSNIKALLFFN [RPN12] | 1.82 ± 0.044
SYELIKEECQIEDDGII [CSN9] | 3.1 ± 0.054
SYLETLTALGKEKEKER [MED2] | 2.92 ± 0.057
SYQKAWDLLQSGSQNIS [RPN12] | 1.08 ± 0.14
SYQPMYQRPMQVQGQQQ [SSN3] | 1.89 ± 0.054
SYSPTSPSYSPTSPNYS [RPO21] | 3.066 ± 0.028
SYSPTSPSYSPTSPSYS [RPO21] | 2.76 ± 0.034
SYVNYRHMALLVDVMTT [RPO21] | 1.18 ± 0.034
TAEINCFMHLLVQLFLW [RPN3] | 2.73 ± 0.072
TALDAEGAARGTSVYLV [DIS3] | 2.28 ± 0.096
TAPANTTDANGSKENYQ [MED2] | 2.86 ± 0.066
TATAATNGNNAGGGSNK [MED6] | 3.46 ± 0.1
TATGIKVFSLDPQYLVD [ASC1] | 2.58 ± 0.032
TAVATLLKELSKNAQFI [SMC3] | 2.66 ± 0.048
TAVLSTTARAKARAKKT [RPN2] | 3.19 ± 0.072
TCVTCHWNLPGERIFNK [SIR2] | 3.19 ± 0.083
TDANGKTIVTGGNGPED [RPO26] | 3.37 ± 0.057
TDDSFEDKVFASKGRTK [BRN1] | 2.29 ± 0.18
TDTSTTATAATNGNNAG [MED6] | 3.29 ± 0.096
TEDILKEISTRVFNAKD [YCS4] | 3.29 ± 0.092
TEDVRLAPELNQAIWKR [RPL31B] | 3.08 ± 0.05
TEELSITGEKLDTQLND [SMC1] | 1.36 ± 0.034

Sequence | protein stability index
TEKEEDAELMADEEEEI [ISW2] | 3.34 ± 0.17
TELKKKLDDLENTKDNL [SMC1] | 2.72 ± 0.14
TELVDKANIFQVIKNEV [SSN2] | 3.16 ± 0.17
TENATENDQQDNEEWMN [LIN1] | 2.77 ± 0.05
TENVAQARIILNHILEK [YGR119C/NUP57] | 2.86 ± 0.061
TEPDKPAFSFNSSVGNK [YJL041W/NSP1] | 3.242 ± 0.029
TEQQIEIPEGVTVSIKS [RPL9B] | 2.47 ± 0.059
TESITHDSSNGLFQVLH [NUT1] | 3.17 ± 0.041
TETLTSKKIVPSPKKVA [SIR4] | 2.55 ± 0.12
TFDGKPTATPSPFRPLE [YMR153W/NUP53] | 2.58 ± 0.071
TFGKPEEEDSILSLEQS [YCS4] | 3.13 ± 0.095
TFLESINGINWRFHTPQ [SIN4] | 2.02 ± 0.043
TFRLPKTLKLARAPKYA [RPL25] | 1.19 ± 0.047
TFSYVDSSLQPEYFESP [YMR129W/POM152] | 3.08 ± 0.22
TGAASNQSSFNFGNNGA [YOR098C/NUP1] | 2.93 ± 0.074
TGAGKGSIGAEVLQGLL [FAS2] | 2.96 ± 0.067
TGALINNLEPRQTTSNT [RPN11] | 3.02 ± 0.076
TGANFDDVERGVSRQIA [REC8] | 3.58 ± 0.12
TGATSLFGSSNNNNNNN [YGL172W/NUP49] | 2.42 ± 0.043
TGEAQVDNSPTTESNSR [YLR335W/NUP2] | 3.06 ± 0.092
TGGLFGAKPAGSTGGLG [YGL172W/NUP49] | 3.54 ± 0.07
TGHSQGLVTAVAIAETD [FAS1] | 3.25 ± 0.095
TGIFMAMHYSSNIELAF [COB] | 1.5 ± 0.078
TGKFVLQGQMEKIMILL [CSN12] | 1.51 ± 0.12
TGKITKMFQDIRLSKIL [CDC53] | 2.86 ± 0.069
